Data from article PMC11641012.

Experiments:
Assay in all cases: EMSA
Settings in all cases: EMSA: 10 mM Tris-HCl, 10 mM NaCl, 40 mM KCl, 1 mM MgCl2, 4 mM EDTA, 1 mM DTT, 0.5 mg/ml BSA, 5% glycerol, 2 pmol DNA in 15 ul, room temperature 15 min (pH not …)
[1] = test system: IntI1 (IntI1Y312F), MBP fusion
IntI1A = test system: IntI1A
IntI1deltaC = test system: IntI1deltaC

Q: How did the K half [1] turn out when “CATTGCGCATTGCGTAGATCTTTTGTTATAACGCCCGCCTAAGGGGCTGACAACGCACTACCACTAAACTCAAACACAACAACAGCAACCACCGCGGCTCAATGGGACTGGAAACGCCACGCGTTGACAGTCCCTCTTGAGGCGTTTGTTATAACTTTCCATGGCTATATTTCAGCATCATCACATCATCATCATCATCATCACAGGGTAGATCATCATCATCAACACGGGACGACAGCAAATGGCACCCTTCTATAAGCTTTTTGTTATAACGCCCGCCTAAGGGGCTGACAACGCACTACCACTAAACTCAAACACAACAACAGCAACCACCGCGGCTCAATGGGACTGGAAACGCCACGCGTTGACAGTCCCTCTTGAGGCGTTTGTTATAACTTTCTCGAGGGTATAGCATTCTAG / CCCTGTGATGATGATGATGATGATGTGATGATGCTGAAATATAGCCATGGACGCAGATCTACGCAATGCGCAATG / CTAGAATGCTATACCCTCGAGCGCAAGCTTATAGAAGGGTGCCATTTGCTGTCGTCCCGTGTTGATGATGATGATC [double-attCVCR2/1 + staples]” was run?
A: 353 nM

Q: “CATTGCGCATTGCGTAGATCTTTTATGTCTAACAATTCATTCAAGCCGACGCCGCTTCGCGGCGCGGCTTAATTCAAGCGTTAGACATTTTCCATGGCTATATTTCAGCATCATCACATCATCATCATCATCATCACAGGGTAGATCATCATCATCAACACGGGACGACAGCAAATGGCACCCTTCTATAAGCTTTTTATGTCTAACAATTCATTCAAGCCGACGCCGCTTCGCGGCGCGGCTTAATTCAAGCGTTAGACATTTTCTCGAGGGTATAGCATTCTAG / CCCTGTGATGATGATGATGATGATGTGATGATGCTGAAATATAGCCATGGACGCAGATCTACGCAATGCGCAATG / CTAGAATGCTATACCCTCGAGCGCAAGCTTATAGAAGGGTGCCATTTGCTGTCGTCCCGTGTTGATGATGATGATC [double-attCaadA7ts + staples]” was tested. Which binding signal [1] did it give?
A: 7 % bound

Q: Which K half [1] does the source give for “CATTGCGCATTGCGTAGATCTTTTGAGTAACCGTTTTGAGTCGAACCCAACGATCCGTTGGTGTTCGAGCTCATCTGTGTTACTCTTTCCATGGCTATATTTCAGCATCATCACATCATCATCATCATCATCACAGGGTAGATCATCATCATCAACACGGGACGACAGCAAATGGCACCCTTCTATAAGCTTTTTGAGTAACCGTTTTGAGTCGAACCCAACGATCCGTTGGTGTTCGAGCTCATCTGTGTTACTCTTTCTCGAGGGTATAGCATTCTAG / CCCTGTGATGATGATGATGATGATGTGATGATGCTGAAATATAGCCATGGACGCAGATCTACGCAATGCGCAATG / CTAGAATGCTATACCCTCGAGCGCAAGCTTATAGAAGGGTGCCATTTGCTGTCGTCCCGTGTTGATGATGATGATC [double-attCL2 + staples]” here?
A: 357 nM

Q: How did the K half [1] turn out when “CATTGCGCATTGCGTAGATCTTTTGTTATAACTTTCGCCTAAGGGGCTGACAACGCACTACCACTAAACTCAAACACAACAACAGCAACCACCGCGGCTCAATGGGACTGGAAACGCCACGCGTTGACAGTCCCTCTTGAGGCGGCCGTTATAACTTTCCATGGCTATATTTCAGCATCATCACATCATCATCATCATCATCACAGGGTAGATCATCATCATCAACACGGGACGACAGCAAATGGCACCCTTCTATAAGCTTTTTGTTATAACTTTCGCCTAAGGGGCTGACAACGCACTACCACTAAACTCAAACACAACAACAGCAACCACCGCGGCTCAATGGGACTGGAAACGCCACGCGTTGACAGTCCCTCTTGAGGCGGCCGTTATAACTTTCTCGAGGGTATAGCATTCTAG / CCCTGTGATGATGATGATGATGATGTGATGATGCTGAAATATAGCCATGGACGCAGATCTACGCAATGCGCAATG / CTAGAATGCTATACCCTCGAGCGCAAGCTTATAGAAGGGTGCCATTTGCTGTCGTCCCGTGTTGATGATGATGATC [double-attCVCRinv + staples]” was run?
A: 135 nM

Q: What does the source list for “CATTGCGCATTGCGTAGATCTTTTATGTCTAACGCTTGAATTAAGCCGCGCCGCGAAGCGGCGTCGGCTTGAATGAATTGTTAGACATTTTCCATGGCTATATTTCAGCATCATCACATCATCATCATCATCATCACAGGGTAGATCATCATCATCAACACGGGACGACAGCAAATGGCACCCTTCTATAAGCTTTTTATGTCTAACGCTTGAATTAAGCCGCGCCGCGAAGCGGCGTCGGCTTGAATGAATTGTTAGACATTTTCTCGAGGGTATAGCATTCTAG / CCCTGTGATGATGATGATGATGATGTGATGATGCTGAAATATAGCCATGGACGCAGATCTACGCAATGCGCAATG / CTAGAATGCTATACCCTCGAGCGCAAGCTTATAGAAGGGTGCCATTTGCTGTCGTCCCGTGTTGATGATGATGATC [double-attCaadA7bs + staples]”?
A: K half (IntI1A): 100 nM; K half (IntI1deltaC): 180 nM; K half [1]: 153 nM
